Experimental data as given in patent US20260365755 (published 2026).

T1: FcγRIIa (human, UniProt P12318)
T1 chain: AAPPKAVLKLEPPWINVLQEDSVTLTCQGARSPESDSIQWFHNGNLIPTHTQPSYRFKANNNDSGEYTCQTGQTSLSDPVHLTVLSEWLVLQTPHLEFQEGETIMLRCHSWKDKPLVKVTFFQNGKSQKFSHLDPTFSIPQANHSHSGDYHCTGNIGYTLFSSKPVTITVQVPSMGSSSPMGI


How the values were obtained:
Test in all cases: BLI
C1q = C1q (human, UniProt P02745)
FcγRIIIa = FcγRIIIa (human, UniProt P08637)
FcγRIIa = molecular target: T1, FcγRIIa
FcRn = FcRn (human, UniProt P55899)

Sequence of C1q (P02745 23-245, chain 1 of 3): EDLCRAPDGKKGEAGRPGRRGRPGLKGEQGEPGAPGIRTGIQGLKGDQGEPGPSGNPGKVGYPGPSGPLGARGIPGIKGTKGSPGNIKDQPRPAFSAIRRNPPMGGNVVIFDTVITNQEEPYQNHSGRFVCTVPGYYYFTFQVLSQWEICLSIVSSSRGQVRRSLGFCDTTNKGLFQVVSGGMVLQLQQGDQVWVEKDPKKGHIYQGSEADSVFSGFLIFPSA
Sequence of C1q (P02746 28-253, chain 2 of 3, further chain): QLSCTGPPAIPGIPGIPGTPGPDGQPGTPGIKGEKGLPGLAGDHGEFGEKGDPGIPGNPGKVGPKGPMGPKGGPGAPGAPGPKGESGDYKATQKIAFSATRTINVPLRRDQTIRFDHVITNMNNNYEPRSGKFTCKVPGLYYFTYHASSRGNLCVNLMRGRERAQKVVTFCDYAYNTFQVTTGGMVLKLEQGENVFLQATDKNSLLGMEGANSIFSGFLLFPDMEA
Sequence of C1q (P02747 29-245, chain 3 of 3, further chain): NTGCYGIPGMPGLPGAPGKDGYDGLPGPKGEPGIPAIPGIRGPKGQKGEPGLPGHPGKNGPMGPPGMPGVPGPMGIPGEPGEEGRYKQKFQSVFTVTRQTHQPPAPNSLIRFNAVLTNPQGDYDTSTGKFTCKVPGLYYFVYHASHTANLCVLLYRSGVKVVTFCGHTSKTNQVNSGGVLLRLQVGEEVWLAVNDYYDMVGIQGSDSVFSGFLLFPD
Sequence of FcγRIIIa (P08637 17-208): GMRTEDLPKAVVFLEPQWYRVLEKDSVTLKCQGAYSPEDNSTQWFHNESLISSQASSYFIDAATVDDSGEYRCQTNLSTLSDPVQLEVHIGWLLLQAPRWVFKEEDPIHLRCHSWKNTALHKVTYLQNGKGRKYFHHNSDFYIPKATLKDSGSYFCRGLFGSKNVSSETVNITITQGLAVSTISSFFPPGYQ

Row | Kd (C1q) | Kd (FcγRIIIa) | Kd (FcγRIIa) | Kd (FcRn) | Binder
1 | 30 nM | 490 nM | 2040 nM | 690 nM | Q-SBL-111 (antibody) chain 1: not shown chain 2: not shown chain 3: EVQLVESGGGLVQPGGSLRLSCAASGYTFTNYGMNWVRQAPGKGLEWVGWINTYTGEPTYAADFKRRFTFSLDTSKSTAYLQMNSLRAEDTAVYYCAKYPHYYGSSHWYFDVWGQGTLVTVSSASTKGPSVFPLAPSSKSTSGGTAALGCLVKDYFPEPVTVSWNSGALTSGVHTFPAVLQSSGLYSLSSVVTVPSSSLGTQTYICNVNHKPSNTKVDKKVEPKSCDKTHTCPPCPAPELLGGPSVFLFPPKPKDTLMISRTPEVTCVVVDVSHEDPEVKFNWYVDGVEVHNAKTKPREEQYNSTYRVVSVLTVLHQDWLNGKEYKCKVSNKALPAPIEKTISKAKGQPREPQVCTLPPSRREMTKNQVSLWCLVKGFYPSDIAVEWESNGQPENNYKTTPPVLDSDGSFFLYSKLTVDKSRWQQGNVFSCSVMHEALHNHYTQKSLSLSPGK chain 4: not shown
2 |  |  |  | 680 nM | Q-SBL-106 (antibody) chain 1: not shown chain 2: not shown chain 3: EVQLVESGGGLVQPGGSLRLSCAASGYTFTNYGMNWVRQAPGKGLEWVGWINTYTGEPTYAADFKRRFTFSLDTSKSTAYLQMNSLRAEDTAVYYCAKYPHYYGSSHWYFDVWGQGTLVTVSSASTKGPSVFPLAPSSKSTSGGTAALGCLVKDYFPEPVTVSWNSGALTSGVHTFPAVLQSSGLYSLSSVVTVPSSSLGTQTYICNVNHKPSNTKVDKKVEPKSCDKTHTCPPCPAPELLGGPSVFLFPPKPKDTLMISRTPEVTCVVVDVSHEDPEVKFNWYVDGVEVHNAKTKPREEQYNSTYRVVSVLTVLHQDWLNGKEYKCKVSNKALPAPIEKTISKAKGQPREPQVCTLPPSRERMTKNQVSLWCLVKGFYPSDIAVEWESNGQPENNYKTTPPVLHSDGSFFLYSKLTVDKSRWQQGNVFSCSVMHEALHNHYTQKSLSLSPGK chain 4: not shown
3 | 40 nM | 220 nM | 1130 nM |  | Q-SBL-103 (antibody) chain 1: not shown chain 2: not shown chain 3: EVQLVESGGGLVQPGGSLRLSCAASGYTFTNYGMNWVRQAPGKGLEWVGWINTYTGEPTYAADFKRRFTFSLDTSKSTAYLQMNSLRAEDTAVYYCAKYPHYYGSSHWYFDVWGQGTLVTVSSASTKGPSVFPLAPSSKSTSGGTAALGCLVKDYFPEPVTVSWNSGALTSGVHTFPAVLQSSGLYSLSSVVTVPSSSLGTQTYICNVNHKPSNTKVDKKVEPKSCDKTHTCPPCPAPELLGGPSVFLFPPKPKDTLMISRTPEVTCVVVDVSHEDPEVKFNWYVDGVEVHNAKTKPREEQYNSTYRVVSVLTVLHQDWLNGKEYKCKVSNKALPAPIEKTISKAKGQPREPQVCTLPPSRERMTKNQVSLWCLVKGFYPSDIAVEWESNGQPENNYKTTPPVLDSDGSFFLYSKLTVDKSRWQQGNVFSCSVMHEALHNHYTQKSLSLSPGK chain 4: not shown
4 |  |  | 1870 nM | 680 nM | Q-SBL-104 (antibody) chain 1: not shown chain 2: not shown chain 3: EVQLVESGGGLVQPGGSLRLSCAASGYTFTNYGMNWVRQAPGKGLEWVGWINTYTGEPTYAADFKRRFTFSLDTSKSTAYLQMNSLRAEDTAVYYCAKYPHYYGSSHWYFDVWGQGTLVTVSSASTKGPSVFPLAPSSKSTSGGTAALGCLVKDYFPEPVTVSWNSGALTSGVHTFPAVLQSSGLYSLSSVVTVPSSSLGTQTYICNVNHKPSNTKVDKKVEPKSCDKTHTCPPCPAPELLGGPSVFLFPPKPKDTLMISRTPEVTCVVVDVSHEDPEVKFNWYVDGVEVHNAKTKPREEQYNSTYRVVSVLTVLHQDWLNGKEYKCKVSNKALPAPIEKTISKAKGQPREPQVCTLPPSRREMTKNQVSLWCLVKGFYPSDIAVEWESNGQPENNYKTTPPVLHSDGSFFLYSKLTVDKSRWQQGNVFSCSVMHEALHNHYTQKSLSLSPGK chain 4: not shown
5 |  | 230 nM | 1970 nM | 620 nM | Q-SBL-136 (antibody) chain 1: not shown chain 2: not shown chain 3: EVQLVESGGGLVQPGGSLRLSCAASGYTFTNYGMNWVRQAPGKGLEWVGWINTYTGEPTYAADFKRRFTFSLDTSKSTAYLQMNSLRAEDTAVYYCAKYPHYYGSSHWYFDVWGQGTLVTVSSASTKGPSVFPLAPSSKSTSGGTAALGCLVKDYFPEPVTVSWNSGALTSGVHTFPAVLQSSGLYSLSSVVTVPSSSLGTQTYICNVNHKPSNTKVDKKVEPKSCDKTHTCPPCPAPELLGGPSVFLFPPKPKDTLMISRTPEVTCVVVDVSHEDPEVKFNWYVDGVEVHNAKTKPREEQYNSTYRVVSVLTVLHQDWLNGKEYKCKVSNKALPAPIEKTISKAKGQPREPQVCTLPPSREEMTKNQVSLWCLVKGFYPSDIAVEWESNGQPENNYKTTPPVLDSDGSFFLYSTLTVDKSRWQQGNVFSCSVMHEALHNHYTQKSLSLSPGK chain 4: not shown
6 |  | 430 nM | 1910 nM | 710 nM | Q-SBL-105 (antibody) chain 1: not shown chain 2: not shown chain 3: EVQLVESGGGLVQPGGSLRLSCAASGYTFTNYGMNWVRQAPGKGLEWVGWINTYTGEPTYAADFKRRFTFSLDTSKSTAYLQMNSLRAEDTAVYYCAKYPHYYGSSHWYFDVWGQGTLVTVSSASTKGPSVFPLAPSSKSTSGGTAALGCLVKDYFPEPVTVSWNSGALTSGVHTFPAVLQSSGLYSLSSVVTVPSSSLGTQTYICNVNHKPSNTKVDKKVEPKSCDKTHTCPPCPAPELLGGPSVFLFPPKPKDTLMISRTPEVTCVVVDVSHEDPEVKFNWYVDGVEVHNAKTKPREEQYNSTYRVVSVLTVLHQDWLNGKEYKCKVSNKALPAPIEKTISKAKGQPREPQVCTLPPSRRRMTKNQVSLWCLVKGFYPSDIAVEWESNGQPENNYKTTPPVLDSDGSFFLYSKLTVDKSRWQQGNVFSCSVMHEALHNHYTQKSLSLSPGK chain 4: not shown
7 | 36 nM | 500 nM | 2460 nM | 730 nM | Q-SBL-101 (antibody) chain 1: not shown chain 2: not shown chain 3: EVQLVESGGGLVQPGGSLRLSCAASGYTFTNYGMNWVRQAPGKGLEWVGWINTYTGEPTYAADFKRRFTFSLDTSKSTAYLQMNSLRAEDTAVYYCAKYPHYYGSSHWYFDVWGQGTLVTVSSASTKGPSVFPLAPSSKSTSGGTAALGCLVKDYFPEPVTVSWNSGALTSGVHTFPAVLQSSGLYSLSSVVTVPSSSLGTQTYICNVNHKPSNTKVDKKVEPKSCDKTHTCPPCPAPELLGGPSVFLFPPKPKDTLMISRTPEVTCVVVDVSHEDPEVKFNWYVDGVEVHNAKTKPREEQYNSTYRVVSVLTVLHQDWLNGKEYKCKVSNKALPAPIEKTISKAKGQPREPQVCTLPPSRREMTKNQVSLWCLVKGFYPSDIAVEWESNGQPENNYKTTPPVLDSDGSFFLYSKLTVDKSRWQQGNVFSCSVMHEALHNHYTQKSLSLSPGK chain 4: not shown
8 | 40 nM | 360 nM | 2550 nM |  | Q-SBL-117 (antibody) chain 1: not shown chain 2: not shown chain 3: EVQLVESGGGLVQPGGSLRLSCAASGYTFTNYGMNWVRQAPGKGLEWVGWINTYTGEPTYAADFKRRFTFSLDTSKSTAYLQMNSLRAEDTAVYYCAKYPHYYGSSHWYFDVWGQGTLVTVSSASTKGPSVFPLAPSSKSTSGGTAALGCLVKDYFPEPVTVSWNSGALTSGVHTFPAVLQSSGLYSLSSVVTVPSSSLGTQTYICNVNHKPSNTKVDKKVEPKSCDKTHTCPPCPAPELLGGPSVFLFPPKPKDTLMISRTPEVTCVVVDVSHEDPEVKFNWYVDGVEVHNAKTKPREEQYNSTYRVVSVLTVLHQDWLNGKEYKCKVSNKALPAPIEKTISKAKGQPREPQVCTLPPSRKEMTKNQVSLWCLVKGFYPSDIAVEWESNGQPENNYKTTPPVLDSDGSFFLYSKLTVDKSRWQQGNVFSCSVMHEALHNHYTQKSLSLSPGK chain 4: not shown
9 | 18 nM | 230 nM | 1860 nM |  | Q-SBL-114 (antibody) chain 1: not shown chain 2: not shown chain 3: EVQLVESGGGLVQPGGSLRLSCAASGYTFTNYGMNWVRQAPGKGLEWVGWINTYTGEPTYAADFKRRFTFSLDTSKSTAYLQMNSLRAEDTAVYYCAKYPHYYGSSHWYFDVWGQGTLVTVSSASTKGPSVFPLAPSSKSTSGGTAALGCLVKDYFPEPVTVSWNSGALTSGVHTFPAVLQSSGLYSLSSVVTVPSSSLGTQTYICNVNHKPSNTKVDKKVEPKSCDKTHTCPPCPAPELLGGPSVFLFPPKPKDTLMISRTPEVTCVVVDVSHEDPEVKFNWYVDGVEVHNAKTKPREEQYNSTYRVVSVLTVLHQDWLNGKEYKCKVSNKALPAPIEKTISKAKGQPREPQVCTLPPSREEMTKNQVSLWCLVKGFYPSDIAVEWESNGQPENNYKTTPPVLHSDGSFFLYSKLTVDKSRWQQGNVFSCSVMHEALHNHYTQKSLSLSPGK chain 4: not shown
10 | 18 nM | 290 nM | 1970 nM | 690 nM | Q-SBL-115 (antibody) chain 1: not shown chain 2: not shown chain 3: EVQLVESGGGLVQPGGSLRLSCAASGYTFTNYGMNWVRQAPGKGLEWVGWINTYTGEPTYAADFKRRFTFSLDTSKSTAYLQMNSLRAEDTAVYYCAKYPHYYGSSHWYFDVWGQGTLVTVSSASTKGPSVFPLAPSSKSTSGGTAALGCLVKDYFPEPVTVSWNSGALTSGVHTFPAVLQSSGLYSLSSVVTVPSSSLGTQTYICNVNHKPSNTKVDKKVEPKSCDKTHTCPPCPAPELLGGPSVFLFPPKPKDTLMISRTPEVTCVVVDVSHEDPEVKFNWYVDGVEVHNAKTKPREEQYNSTYRVVSVLTVLHQDWLNGKEYKCKVSNKALPAPIEKTISKAKGQPREPQVCTLPPSRERMTKNQVSLWCLVKGFYPSDIAVEWESNGQPENNYKTTPPVLDSDGSFFLYSKLTVDKSRWQQGNVFSCSVMHEALHNHYTQKSLSLSPGK chain 4: not shown
11 |  | 300 nM | 1380 nM | 650 nM | Q-SBL-135 (antibody) chain 1: not shown chain 2: not shown chain 3: EVQLVESGGGLVQPGGSLRLSCAASGYTFTNYGMNWVRQAPGKGLEWVGWINTYTGEPTYAADFKRRFTFSLDTSKSTAYLQMNSLRAEDTAVYYCAKYPHYYGSSHWYFDVWGQGTLVTVSSASTKGPSVFPLAPSSKSTSGGTAALGCLVKDYFPEPVTVSWNSGALTSGVHTFPAVLQSSGLYSLSSVVTVPSSSLGTQTYICNVNHKPSNTKVDKKVEPKSCDKTHTCPPCPAPELLGGPSVFLFPPKPKDTLMISRTPEVTCVVVDVSHEDPEVKFNWYVDGVEVHNAKTKPREEQYNSTYRVVSVLTVLHQDWLNGKEYKCKVSNKALPAPIEKTISKAKGQPREPQVCTLPPSREEMTKNQVSLWCLVKGFYPSDIAVEWESNGQPENNYKTTPPVLDSDGSFFLYSVLTVDKSRWQQGNVFSCSVMHEALHNHYTQKSLSLSPGK chain 4: not shown
